The target of test [1] is T1, GAL/STAMP(623-834) (human).
T1 construct: domain: GAL-DBD; Expressed in CV-1 cells for the mammalian two-hybrid assay; also called Gal/6-6CL1
The test is described as follows: mammalian two-hybrid in CV-1 cells.

For test [2], the target named is transcription intermediary factor-2 (TIF2), full length (human, UniProt Q15596 1-1464). The test is described as follows: cell-based or functional assay.
Test [3] has as its target T2, GAL/STAMP(834C) (human, UniProt P04386 1-147 (Saccharomyces cerevisiae entry)).
T2 construct: domain: GAL-DBD; Mammalian two-hybrid construct; also called GAL fused to STAMP834C
Put plainly: mammalian two-hybrid (data not shown).

Test [4] has as its target T3, GAL/STAMP(N834) (human).
T3 construct: domain: GAL-DBD; Mammalian two-hybrid construct; also called GAL/N834
Put plainly: mammalian two-hybrid ±1 µM Dex (FIG. 6B).

Test [5] addresses T4, STAMP amino terminal fragment (N623), in vitro translated (human, UniProt Q6EMB2 5-627, [35S]methionine labeled).
T4 sequence: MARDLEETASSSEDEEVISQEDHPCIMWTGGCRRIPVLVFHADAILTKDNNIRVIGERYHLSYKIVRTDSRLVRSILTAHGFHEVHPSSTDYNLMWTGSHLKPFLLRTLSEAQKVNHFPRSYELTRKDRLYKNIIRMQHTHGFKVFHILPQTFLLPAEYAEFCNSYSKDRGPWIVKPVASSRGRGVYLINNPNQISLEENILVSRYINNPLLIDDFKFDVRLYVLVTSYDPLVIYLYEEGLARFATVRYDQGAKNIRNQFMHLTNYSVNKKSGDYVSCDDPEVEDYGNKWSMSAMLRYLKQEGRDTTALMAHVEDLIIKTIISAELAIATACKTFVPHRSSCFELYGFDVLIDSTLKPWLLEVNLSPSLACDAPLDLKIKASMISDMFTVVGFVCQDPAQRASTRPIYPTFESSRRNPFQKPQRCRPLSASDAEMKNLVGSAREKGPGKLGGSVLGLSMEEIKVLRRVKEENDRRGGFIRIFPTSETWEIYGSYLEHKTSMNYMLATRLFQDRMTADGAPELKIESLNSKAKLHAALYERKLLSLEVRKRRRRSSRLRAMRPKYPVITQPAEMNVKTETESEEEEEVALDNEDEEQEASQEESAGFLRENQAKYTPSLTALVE
The test is described as follows: GST pulldown, autoradiography (FIG. 7A).
Procedure: (§1) The mixture was centrifuged (12,000×g), the supernatant was discarded, and the pellet was washed with phosphate-buffered saline (3×1 ml). Each 20-μl sample of immobilized GST or GST-chimera was then incubated overnight with 10 μl of ³⁵S-labeled in vitro translation product. The matrix was washed with phosphate-buffered saline (4×1 ml). The immobilized proteins were removed from the beads by heating at 90° C. for 5 min in 20 μl of 2×SDS loading buffer. The proteins were separated on 8-10% SDS-PAGE gels and detected by radio-autoradiography.

Test [6] has as its target T5, STAMP C-terminal fragment (834C), in vitro translated (human, UniProt Q6EMB2 838-1281, [35S]methionine labeled).
T5 sequence: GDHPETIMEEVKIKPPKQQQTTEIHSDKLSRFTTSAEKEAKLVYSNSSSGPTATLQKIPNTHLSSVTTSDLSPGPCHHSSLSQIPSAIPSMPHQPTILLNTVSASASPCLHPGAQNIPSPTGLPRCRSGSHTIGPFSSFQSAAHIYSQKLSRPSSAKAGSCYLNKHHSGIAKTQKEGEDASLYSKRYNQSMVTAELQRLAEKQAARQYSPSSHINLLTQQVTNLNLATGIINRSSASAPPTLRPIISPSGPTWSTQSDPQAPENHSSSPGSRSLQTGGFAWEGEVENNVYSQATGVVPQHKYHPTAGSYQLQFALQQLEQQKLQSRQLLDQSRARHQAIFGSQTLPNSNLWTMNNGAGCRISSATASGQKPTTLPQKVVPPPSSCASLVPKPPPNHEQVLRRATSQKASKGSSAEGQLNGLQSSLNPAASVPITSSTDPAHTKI
Put plainly: GST pulldown, autoradiography (FIG. 7A).
Procedure: as §1

B1: VP16/TIF2(1140C) (other)
chain: QAQMAQGSYSPMQDPNFHTMGQRPSYATLRMQPRPGLRPTGLVQNQPNQLRLQLQHRLQAQQNRQPLMNQISNVSNVNLTLRPGVPTQAPINAQMLAQRQREILNQHLRQRQMHQQQQVQQRTLMMRGQGLNMTPSMVAPSGMPATMSNPRIPQANAQQFPFPPNYGISQQPDPGFTGATTPQSPLMSPRMAHTQSPMMQQSQANPAYQAPSDINGWAQGNMGGNSMFSQQSPPHFGQQANTSMYSNNMNINVSMATNTGGMSSMNQMTGQISMTSVTSVPTSGLSSMGPEQVNDPALRGGNLFPNQLPGMDMIKQEGDTTRKYC
B1: the binding result in test [1] is “no binding”.

B2: full length STAMP (SRC-1 and TIF2 Associated Modulatory Protein) (other)
chain: MARDLEETASSSEDEEVISQEDHPCIMWTGGCRRIPVLVFHADAILTKDNNIRVIGERYHLSYKIVRTDSRLVRSILTAHGFHEVHPSSTDYNLMWTGSHLKPFLLRTLSEAQKVNHFPRSYELTRKDRLYKNIIRMQHTHGFKVFHILPQTFLLPAEYAEFCNSYSKDRGPWIVKPVASSRGRGVYLINNPNQISLEENILVSRYINNPLLIDDFKFDVRLYVLVTSYDPLVIYLYEEGLARFATVRYDQGAKNIRNQFMHLTNYSVNKKSGDYVSCDDPEVEDYGNKWSMSAMLRYLKQEGRDTTALMAHVEDLIIKTIISAELAIATACKTFVPHRSSCFELYGFDVLIDSTLKPWLLEVNLSPSLACDAPLDLKIKASMISDMFTVVGFVCQDPAQRASTRPIYPTFESSRRNPFQKPQRCRPLSASDAEMKNLVGSAREKGPGKLGGSVLGLSMEEIKVLRRVKEENDRRGGFIRIFPTSETWEIYGSYLEHKTSMNYMLATRLFQDRMTADGAPELKIESLNSKAKLHAALYERKLLSLEVRKRRRRSSRLRAMRPKYPVITQPAEMNVKTETESEEEEEVALDNEDEEQEASQEESAGFLRENQAKYTPSLTALVENTPKENSMKVREWNNKGGHCCKLETQELEPKFNLMQILQDNGNLSKMQARIAFSAYLQHVQIRLMKDSGGQTFSASWAAKEDEQMELVVRFLKRASNNLQHSLRMVLPSRRLALLERRRILAHQLGDFIIVYNKETEQMAEKKSKKKVEEEEEDGVNMENFQEFIRQASEAELEEVLTFYTQKNKSASVFLGTHSKISKNNNNYSDSGAKGDHPETIMEEVKIKPPKQQQTTEIHSDKLSRFTTSAEKEAKLVYSNSSSGPTATLQKIPNTHLSSVTTSDLSPGPCHHSSLSQIPSAIPSMPHQPTILLNTVSASASPCLHPGAQNIPSPTGLPRCRSGSHTIGPFSSFQSAAHIYSQKLSRPSSAKAGSCYLNKHHSGIAKTQKEGEDASLYSKRYNQSMVTAELQRLAEKQAARQYSPSSHINLLTQQVTNLNLATGIINRSSASAPPTLRPIISPSGPTWSTQSDPQAPENHSSSPGSRSLQTGGFAWEGEVENNVYSQATGVVPQHKYHPTAGSYQLQFALQQLEQQKLQSRQLLDQSRARHQAIFGSQTLPNSNLWTMNNGAGCRISSATASGQKPTTLPQKVVPPPSSCASLVPKPPPNHEQVLRRATSQKASKGSSAEGQLNGLQSSLNPAASVPITSSTDPAHTKI
For the molecule B2, in test [2], the “fold repression by Dex of the PMA-induced AP-1/Luc reporter in U2OS.rGR cells (STAMP added, no TIF2 added)” value was 16 fold and the “fold repression by Dex of the PMA-induced AP-1/Luc reporter in U2OS.rGR cells (STAMP plus TIF2 added)” value was ~31 fold.

B3: GR C-terminal half (407C) (receptor, UniProt P06536 407-795, looked up, not shown: large carriers)
chain: SVFSNGYSSPGMRPDVSSPPSSSSAATGPPPKLCLVCSDEASGCHYGVLTCGSCKVFFKRAVEGQHNYLCAGRNDCIIDKIRRKNCPACRYRKCLQAGMNLEARKTKKKIKGIQQATAGVSQDTSENPNKTIVPAALPQLTPTLVSLLEVIEPEVLYAGYDSSVPDSAWRIMTTLNMLGGRQVIAAVKWAKAILGLRNLHLDDQMTLLQYSWMFLMAFALGWRSYRQSSGNLLCFAPDLIINEQRMSLPCMYDQCKHMLFVSSELQRLQVSYEEYLCMKTLLLLSSVPKEGLKSQELFDEIRMTYIKELGKAIVKREGNSSQNWQRFYQLTKLLDSMHEVVENLLTYCFQTFLDKTMSIEFPEMLAEIITNQIPKYSNGNIKKLLFHQK
notes: also called GR407C
As for B3, the binding result in test [3] was “no binding”.

B4: VP16/GR (receptor)
chain: MDSKESLAPPGRDEVPGSLLGQGRGSVMDFYKSLRGGATVKVSASSPSVAAASQADSKQQRILLDFSKGSTSNVQQRQQQQQQQQQQQQQQQQQQQPDLSKAVSLSMGLYMGETETKVMGNDLGYPQQGQLGLSSGETDFRLLEESIANLNRSTSVPENPKSSTSATGCATPTEKEFPKTHSDASSEQQNRKSQTGTNGGSVKLYPTDQSTFDLLKDLEFSAGSPSKDTNESPWRSDLLIDENLLSPLAGEDDPFLLEGNTNEDCKPLILPDTKPKIKDTGDTILSSPSSVALPQVKTEKDDFIELCTPGVIKQEKLGPVYCQASFSGTNIIGNKMSAISVHGVSTSGGQMYHYDMNTASLSQQQDQKPVFNVIPPIPVGSENWNRCQGSGEDSLTSLGALNFPGRSVFSNGYSSPGMRPDVSSPPSSSSAATGPPPKLCLVCSDEASGCHYGVLTCGSCKVFFKRAVEGQHNYLCAGRNDCIIDKIRRKNCPACRYRKCLQAGMNLEARKTKKKIKGIQQATAGVSQDTSENPNKTIVPAALPQLTPTLVSLLEVIEPEVLYAGYDSSVPDSAWRIMTTLNMLGGRQVIAAVKWAKAILGLRNLHLDDQMTLLQYSWMFLMAFALGWRSYRQSSGNLLCFAPDLIINEQRMSLPCMYDQCKHMLFVSSELQRLQVSYEEYLCMKTLLLLSSVPKEGLKSQELFDEIRMTYIKELGKAIVKREGNSSQNWQRFYQLTKLLDSMHEVVENLLTYCFQTFLDKTMSIEFPEMLAEIITNQIPKYSNGNIKKLLFHQK
notes: Assayed with and without 1 µM Dex
For the molecule B4, the binding result in test [4] is “no binding”.

B5: GR N-terminal half (N523) (receptor, UniProt P06536 1-523, looked up, not shown: large carriers)
chain: MDSKESLAPPGRDEVPGSLLGQGRGSVMDFYKSLRGGATVKVSASSPSVAAASQADSKQQRILLDFSKGSTSNVQQRQQQQQQQQQQQQQQQQQQQPDLSKAVSLSMGLYMGETETKVMGNDLGYPQQGQLGLSSGETDFRLLEESIANLNRSTSVPENPKSSTSATGCATPTEKEFPKTHSDASSEQQNRKSQTGTNGGSVKLYPTDQSTFDLLKDLEFSAGSPSKDTNESPWRSDLLIDENLLSPLAGEDDPFLLEGNTNEDCKPLILPDTKPKIKDTGDTILSSPSSVALPQVKTEKDDFIELCTPGVIKQEKLGPVYCQASFSGTNIIGNKMSAISVHGVSTSGGQMYHYDMNTASLSQQQDQKPVFNVIPPIPVGSENWNRCQGSGEDSLTSLGALNFPGRSVFSNGYSSPGMRPDVSSPPSSSSAATGPPPKLCLVCSDEASGCHYGVLTCGSCKVFFKRAVEGQHNYLCAGRNDCIIDKIRRKNCPACRYRKCLQAGMNLEARKTKKKIKGIQQAT
notes: domain: N-terminal half (N523)
Turning to B5, the binding result in test [3] was “no binding”.

B6: GST/TIF2.4 (other)
chain: ERADGQSRLHDSKGQTKLLQLLTTKSDQMEPSPLASSLSDTNKDSTGSLPGSGSTHGTSLKEKHKILHRLLQDSSSPVDLAKLTAEATGKDLSQESSSTAPGSEVTIKQEPVSPKKKENALLRYLLDKDDTKDIGLPEITPKLERLDSKTDPASNTKLIAMKTEKEEMSFEPGDQPGSELDNLEEILDDLQNSQLPQLFPDTRPGAPAGSVDKQAIINDLMQLTAENSPVTPVGAQKTALRISQSTFNNPRPGQLGRLLPNQNLPLDITLQSPTGAGPFPPIRNSSPYSVIPQPGMMGNQGMIGNQGNLGNSSTGMIGNSASRPTMPSGEWAPQSSAVRVTCAATTSAMNRPVQGGMIRNPAASIPMRPSSQPGQRQTLQSQVMNIG
notes: Bacterially expressed, immobilized on glutathione-Sepharose beads; The text gives no limits for TIF2.4, so the whole TIF2 entry is named; not shown: glutathione S-transferase (GST) of a pGEX plasmid
Consider B6, for which the binding result in test [5] and in test [6] was “no binding” in each case.
